How the values were obtained:
[1] = molecular target: T1, HEL19 38-56 SEQ ID No: 245; experiment: peptide-array ELISA on mimics of the human ZIP12 ECD (peroxidase conjugate, ABTS, CCD read-out); antibody concentration of this value not given
T1 construct: alpha-helical mimic
T1 peptide: CGSSCQPADLLQVLSAGDH
Method: (§1) The binding of antibody to each of the synthesized peptides was tested in a peptide-based ELISA. The peptide arrays were incubated with primary antibody solution (overnight at 4° C.). After washing, the peptide arrays were incubated with a 1/1000 dilution of an appropriate antibody peroxidase conjugate for one hour at 25° C. After washing, the peroxidase substrate 2,2′-azino-di-3-ethylbenzthiazoline sulfonate (ABTS) and […] of 3 percent H2O2 were added. After one hour, the colour development was measured. The colour development was quantified with a charge coupled device—camera and an image processing system.

[2] = molecular target: T2, LOOP15 35-49 SEQ ID No: 238; experiment: as above
T2 construct: constrained mimic
T2 peptide: CRSRGSSGQPADLLC
Method: as §1

[3] = molecular target: T3, BETA22 31-52 SEQ ID No: 248 (not fully specified); experiment: as above
T3 construct: beta-turn mimic
T3 peptide: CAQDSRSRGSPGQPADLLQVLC
Method: as §1

[4] = molecular target: T4, LIN15 37-51 SEQ ID No: 226; experiment: as above
T4 peptide: RGSSGQPADLLQVLS
Method: as §1

[5] = molecular target: T5, LOOP15 36-50 SEQ ID No: 239; experiment: as above
T5 construct: constrained mimic
T5 peptide: CSRGSSGQPADLLQC
Method: as §1

[6] = molecular target: T6, huZIP12-ECD-GST (human, UniProt Q504Y0 24-202); experiment: SPR single cycle kinetics (Biacore): mAb captured on protein A, huZIP12-ECD-GST injected at 3.12-800 nM
T6 construct: also called hZIP12-ECD-GST; human ZIP12-ECD-GST; not shown: glutathione S-transferase (GST) tag
Method: (§2) Single Cycle Kinetics (SCK) involves first capturing the mAb onto the protein A sensor surface and then sequentially injecting a series of concentrations of huZIP12-ECD-GST over the surface starting at the lowest concentration and ending with the highest concentration. The final concentration is followed by a dissociation phase where buffer only is passed across the surface followed by regeneration, where the remaining bound huZIP12-ECD-GST is removed from the surface by injection of a 10 mM Glycine pH 1.5 and 50 mM NaOH solution. The SCK is repeated for each monoclonal antibody providing duplicate data and the kinetics of each interaction is evaluated by the Biacore software.
Referring to FIG. 6, there are shown the kinetic parameters obtained for all antibody variants when screened with the 3.12 nM to 800 nM huZIP12-ECD-GST. […] Affinity.

[7] = molecular target: T6, huZIP12-ECD-GST; experiment: SPR single cycle kinetics (Biacore): mAb captured on protein A, huZIP12-ECD-GST injected at 2.34-600 nM, extended dissociation
Method: as §2
A selection of the higher affinity antibody variants were re-tested at a lower concentration series with an extended dissociation time with the objective of obtaining a better assessment of the binding kinetics. Referring now to FIG. 7, there are shown the data for the monoclonal antibodies that were re-tested to optimise the binding kinetic data. Once again, three antibody variants, H3_W99H_L1, H3_W99HL2 and H3_W99H_VL-par, all appear to have a higher affinity than the parent antibody. The on-rate (ka), off-rate (kd) and overall affinity measurement (KD) are all improved compared to the 51B12 VH_VL_par parent antibody.

T6 sequence (Q504Y0 24-202): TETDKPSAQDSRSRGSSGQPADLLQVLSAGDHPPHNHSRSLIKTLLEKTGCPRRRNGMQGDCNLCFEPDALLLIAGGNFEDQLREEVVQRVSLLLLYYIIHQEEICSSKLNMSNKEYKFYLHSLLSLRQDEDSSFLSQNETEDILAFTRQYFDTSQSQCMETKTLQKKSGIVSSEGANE

B1: H3_W99H_L1 (antibody, V domains shown)
VH: QVQLVESGGGVVQPGRSLRLSCAASGFTFSDYGMHWVRQAPGKGLEWVAYISSGGTTIYYADTVKGRFTISRDNSKNTLYLQMNSLRAEDTAVYYCARHTNLYAMDYWGQGTTVTVSS
VL: DIVLTQSPDSLAVSLGERATINCRASKSVSTQGYSYMHWYQQKPGQPPKFLIYLASNLESGVPDRFSGSGSGTDFTLTISSLQAEDVAVYYCQHSREVPYTFGGGTKVEIKR
notes: Fc null human IgG1 / human kappa
Binder B1 has a value [1] of 828, a value [2] of 901 and a value [3] of 2440. The value [4] was 2570, the value [5] was 976 and the Kd [6] was 0.533 nM. The koff [6] was 4.98e-05 s⁻¹, the kon [6] was 93400 M⁻¹ s⁻¹ and the Kd [7] was 0.314 nM. It also gave a koff [7] of 3.14e-05 s⁻¹ and a kon [7] of 99900 M⁻¹ s⁻¹.
